According to patent US20020147170A1 (priority 2000, published 2002):

Key:
[1] = biological target: T1, MC-4 receptor (Homo sapiens, UniProt P32245, D146M); test: SMS-Luc luciferase reporter assay in HEK293 cells; format: cell-based
T1 construct: expressed in transfected cells; host or cells: HEK293
Experimental: Briefly, HEK293 cells were cotransfected, as described above, with an expression vector encoding either the wild-type MC-4 receptor or the Asp146Met mutant MC-4 receptor and the reporter construct, SMS-Luc. As a negative control, cells were transfected with SMS-Luc and pcDNA1. Basal and ligand (αMHS) induced activity of the negative control, the wild-type MC-4 receptor, and the Asp146Met mutant MC-4 receptor were measured using the luciferase assay described above.

[2] = biological target: T1, MC-4 receptor; test: Basal level cAMP production; format: cell-based; conditions: FIG. 2
Experimental: As but one example, ligand-dependent activation of the melanocortin-4 (MC-4) receptor is assayed by measuring an increase in cAMP production (Huszar et al., Cell 88:131-141, (1997)).

[3] = system: rat mu opioid receptor; test: CRE-Luc luciferase reporter assay with forskolin stimulation; format: cell-based; conditions: CRE-Luc luciferase reporter, FIG. 4
Description: (§1) The response element employed in this assay was the cAMP-response element (CRE), which is sensitive to Gαi mediated reductions in intracellular levels of cAMP. Signaling through the rat mu opioid receptor via Gαi inhibits adenylate cyclase, causing a decrease in intracellular cellular cAMP. Therefore, an increase in rat mu opioid receptor signaling induces a decrease in CRE mediated reporter activity.
(§2) Mutation induced Gαi-mediated decreases in intracellular cAMP were, prior to the present invention, more often measured by 1) stimulating cells with forskolin, which causes receptor-independent activation of adenylate cyclase and generates an intracellular pool of cAMP; 2) stimulating the cells with ligand; and 3) measuring the ligand-induced, receptor-dependent Gαi-mediated decrease in the intracellular cAMP pool (e.g., using a radioimmunoassay (e.g., New England Nuclear, Boston, Mass.)). […] Specifically, cells transfected with a CRE-Luc reporter construct (Stratagene, La Jolla, Calif.) and an expression vector encoding either a wild-type or a mutant rat mu opioid receptor were stimulated with 0.5 μM or 2 μM forskolin to increase the intracellular pool of cAMP. The basal (and ligand-induced) level of receptor activity was then measured using a standard luciferase assay (see FIG. 4). Coexpression of the receptor of interest with a luciferase reporter gene construct allows one to measure light emission as a readout for basal signaling.
(§3) This decrease in activity indicates an increase in the basal level activity of the mutant rat mu opioid receptor, because activation of the rat mu opioid receptor induces a decrease in CRE-mediated reporter activity (FIG. 4, compare 0.5 μM wild-type vs. 0.5 μM mutant and 2 μM wild-type vs. 2 μM mutant).

[4] = biological target: T2, rat mu opioid receptor (Rattus norvegicus, UniProt P33535, N150A); test: SRE-Luc/Gq5i luciferase reporter assay in HEK293 cells; format: cell-based; conditions: see Example 1
T2 construct: expressed in transfected cells; host or cells: HEK293 (stated for the SRE-Luc/Gq5i assay); receptor gene in pcDNA1
Description: (§4) A positive assay for Gαi coupling (i.e., one that yields an increase in luciferase activity upon receptor activation, instead of a negative assay, one that yields a decrease in luciferase activity upon receptor activation), provides a detectable output signal and less interassay variation. It was hypothesized that Gαi coupling could be detected by altering the signaling pathway generated by Gαi coupled receptors. A chimeric G protein (Gqi5, Broach and Thorner, Nature 384 (Suppl.): 14-16 (1996)) that contains the entire Gαq protein having five C-terminal amino acids from Gαi attached to the C-terminus of Gαq has been generated. This chimeric G protein is recognized as Gαi by Gαi coupled receptors, but switches the receptor induced signaling from Gαi to Gαq. This allows Gαi receptor coupling to be detected using a positive assay by use of the Gαq responsive SMS-Luc or SRE-Luc construct (Stratagene, La Jolla, Calif.). SMS and SRE preferably respond to Gαq mediated inositol and calcium production. Moreover, detection can be carried out in the absence of forskolin pre-stimulation of cells.
(§5) Reagents & Solutions: The cell culture media used in the assays described below was Gibco BRL #12100-046. This media was made according to manufacturer's recipe, pH adjusted to 7.2, filtered (0.22 micron pore), and supplemented with 1% Pen/Strep (Gibco #15140-122; 100% penicillin G 10,000 units/ml, and streptomycin 10,000 μg/ml) and 10% fetal bovine serum. Cell culture media lacking 10% fetal bovine serum was also generated. DNA used in the transfection experiments was purified and quantitated by measuring the absorbance at OD260. A LucLite Luciferase Assay Kit (Packard) was used to quantitate luciferase activity. Transfections were carried out using LipofectAMINE Reagent (Gibco #18324-012).
(§6) The rat mu opioid receptor is a Gαi coupled receptor. Therefore we chose to use the Gq5i reporter system, described in detail above (Broach and Thorner, supra), which switches the signaling pathway from Gαi to Gαq for reliable positive readout. HEK293 cells were transfected with the reporter construct SRE-Luc, an expression vector containing nucleic acid encoding Gq5i (Broach and Thorner, supra), and an expression vector containing nucleic acid encoding either the wild-type or the Asn150Ala mutant rat mu opioid receptor. Basal and ligand-stimulated luciferase activity was measured. The ligand used in this assay was [D—Ala^2—MePhe^4, Gly-ol^5]enkephalin] (DAMGO). As a negative control, HEK293 cells were transfected with pcDNA1 (empty vector DNA), SRE-Luc, and the expression vector containing nucleic acid encoding Gq5i (Broach and Thorner, supra).
(§7) The luciferase assay was carried out as follows. On day 1, HEK293 cells in a T75 flask were washed with 15 ml serum-free media (or PBS), trypsinized with 5 ml 0.05% trypsin-EDTA (Gibco #25300-062), incubated at 37° C. for 3 minutes at which time 6-7 ml complete HEK293 media (Gibco #12100-046) and 10% Fetal Bovine Serum (Intergen #1050-90) were added. Thereafter, cells were collected in 50 ml centrifuge tubes, pelleted at 800-900 rpm (RCF˜275), and resuspend in 20 ml complete media. The cells were counted using a haemocytometer and diluted to 85,000 cells/ml in complete media. Using a repeat pipettor or cell plater, 100 μl of cells were added to each well of a Primaria 96-well plate (Falcon #353872). Cells were then incubated at 37° C., 5% CO2 until use at 48 hours.
(§8) On day 3, cells were transfected using LipofectAMINE™ according to the manufacturer's protocol (Gibco #18324-012, Rockville, Md.).
(§9) On day 4, cells were stimulated as follows. Ligands for the receptor, either DAMGO or a non-peptide ligand (e.g., naloxone or naltrexone), were diluted to a desired concentration in serum-free media containing 0.15 mM PMSF (or other protease inhibitor(s)). […]

[5] = system: rat mu opioid receptor; test: as above; format: cell-based; conditions: SRE + Gq5i
Description: as §4, §5, §6, §7, §8, §9

[6] = biological target: T2, rat mu opioid receptor; test: CRE-Luc luciferase reporter assay with forskolin stimulation; format: cell-based; conditions: CRE-Luc, 0.5 μM or 2 μM forskolin
Description: as §1, §2, §3

[7] = system: mu opioid receptor; test: Luciferase activity on DAMGO titration (FIG. 15); format: cell-based, rat; conditions: DAMGO titrated onto cells
Experimental: Ligand (Damgo) was titrated onto the cells expressing either the mutant or the wild-type mu opioid receptor and the luciferase activity was measured to assess the sensitivity of the receptor to ligand stimulation.
It is important to note that the mu opioid receptor of the invention is also hypersensitive.

[8] = biological target: T3, CCK-BR (Homo sapiens, UniProt P32239, L325E); test: Luciferase reporter assay (SMS-Luc, SRE-Luc) in HEK293 cells; format: cell-based
T3 construct: expressed in transfected cells; host or cells: HEK293
T3 sequence (P32239 1-447 L325E): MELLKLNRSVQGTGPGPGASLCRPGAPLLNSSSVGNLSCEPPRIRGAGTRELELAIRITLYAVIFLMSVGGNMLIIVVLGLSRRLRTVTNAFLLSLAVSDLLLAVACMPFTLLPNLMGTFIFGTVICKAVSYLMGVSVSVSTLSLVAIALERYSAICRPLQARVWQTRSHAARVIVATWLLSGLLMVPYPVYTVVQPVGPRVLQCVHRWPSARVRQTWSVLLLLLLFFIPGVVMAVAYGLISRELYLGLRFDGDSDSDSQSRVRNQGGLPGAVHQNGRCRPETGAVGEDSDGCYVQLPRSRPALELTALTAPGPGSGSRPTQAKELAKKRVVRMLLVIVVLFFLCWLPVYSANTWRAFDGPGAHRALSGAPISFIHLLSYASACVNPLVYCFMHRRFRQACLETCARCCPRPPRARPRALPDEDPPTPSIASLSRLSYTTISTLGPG
Description: as §1
HEK293 cells were transfected (as described above) with SMS-Luc and an expression vector encoding any one of pcDNA1, wild-type CCK-BR, or Leu325Glu CCK-BR.

[9] = system: CCK-BR; conditions: COS-7 cells, absence of agonist; cited from earlier work

T1 sequence (P32245 whole entry D146M): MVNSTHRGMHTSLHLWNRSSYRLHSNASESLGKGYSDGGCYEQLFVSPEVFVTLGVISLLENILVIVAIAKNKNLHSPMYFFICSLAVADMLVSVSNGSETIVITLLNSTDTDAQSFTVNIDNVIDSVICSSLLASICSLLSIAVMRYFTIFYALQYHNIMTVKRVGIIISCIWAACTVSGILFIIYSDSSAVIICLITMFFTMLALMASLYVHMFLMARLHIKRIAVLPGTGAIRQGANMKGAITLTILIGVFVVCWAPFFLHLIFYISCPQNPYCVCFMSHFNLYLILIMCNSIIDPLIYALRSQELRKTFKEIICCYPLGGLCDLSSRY

In the case of “Asp146Met mutant MC-4 receptor: melanocortin-4 receptor with Asp at position 146 (DRY motif) replaced by Met”, the “basal level activity vs wild-type” value [1] is reported as “higher basal level activity than its wild-type counterpart” and the “constitutive activity by basal level cAMP production” value [2] is reported as “constitutive activity”.

For C[C@@H](NC(=O)[C@@H](N)Cc1ccc(O)cc1)C(=O)NCC(=O)N(C)[C@@H](Cc1ccccc1)C(=O)NCCO [DAMGO, [D—Ala^2—MePhe^4, Gly-ol^5]enkephalin], reference compound], the “effect of agonist stimulation of the receptor on forskolin induced activity” value [3] was “decrease in forskolin induced activity”.

B1: Asn150Ala rat mu opioid receptor: rat mu opioid receptor (SEQ ID NO: 1) with Asn to Ala point mutation at position 150, expressed from pcDNA1 (protein)
chain: MDSSTGPGNTSDCSDPLAQASCSPAPGSWLNLSHVDGNQSDPCGLNRTGLGGNDSLCPQTGSPSMVTAITIMALYSIVCVVGLFGNFLVMYVIVRYTKMKTATNIYIFNLALADALATSTLPFQSVNYLMGTWPFGTILCKIVISIDYYAMFTSIFTLCTMSVDRYIAVCHPVKALDFRTPRNAKIVNVCNWILSSAIGLPVMFMATTKYRQGSIDCTLTFSHPTWYWENLLKICVFIFAFIMPVLIITVCYGLMILRLKSVRMLSGSKEKDRNLRRITRMVLVVVAVFIVCWTPIHIYVIIKALITIPETTFQTVSWHFCIALGYTNSCLNPVLYAFLDENFKRCFREFCIPTSSTIEQQNSTRVRQNTREHPSTANTVDRTNHQLENLEAETAPLP
With B1 the “basal activity relative to the maximal level of ligand-stimulated second messenger signaling” value [4] was “exceeded 50%”, the “Average Ligand Stimulated Activity (Light Emission)” value ([5]; HEK293 cells, ligand DAMGO) was 86,996 and the “Average Basal Activity (Light Emission)” value ([5]; HEK293 cells, no ligand) was “*56,498”. The “stimulation of basal level activity” value ([5]; mutant vs wild-type receptor, listed as Asn150Ala mutant mu opioid receptor) was “approximately 6.5 fold”, the “basal activity (forskolin-induced, no receptor stimulation) vs wild-type receptor” value [6] was “reduction in basal activity” and the “level of constitutive activity relative to ligand-stimulated activity of the wild-type receptor” value [6] was 50%. For the same molecule, the “sensitivity of the receptor to ligand stimulation vs wild-type” value ([7]; listed as Asn150Ala rat mutant mu opioid receptor) was “hypersensitivity” and the “sensitivity of the receptor to ligand stimulation vs wild-type” value ([7]; listed as mutant receptor) was “responsive to a lower concentration of ligand than the wild-type receptor”.

B2: Leu325Glu CCK-BR mutant: human CCK-BR with point mutation Leu325Glu in the third intracellular loop (protein, UniProt P32239 1-447, looked up, variant L325E)
Gastrin/cholecystokinin type …: T3 sequence (P32239 1-447 L325E)
In the case of B2, the “basal activity detected by the SMS and SRE response elements” value ([8]; SMS and SRE response elements, Gαq coupled, FIG. 3) is listed as “increase in basal activity”, the “basal level activity vs wild-type CCK-BR” value ([8]; SMS-Luc, HEK293 cells) is listed as “increased basal level activity” and the “agonist-independent constitutive activity (inositol phosphate production)” value [9] is listed as “triggers constitutive production of inositol phosphates to levels exceeding wild-type CCK-BR”.
